Target: hepatitis B virus (HBV) truncated core protein Cp149 dimer (hepatitis B virus)
Assay: resistive-pulse sensing

## hepatitis B virus (HBV) truncated core protein Cp149 dimer (domain or fragment)
  stoichiometry N: 90 dimers
